Experimental data from article PMC10621992 (PLOS Pathogens, 2023).

Biological target: T1, GST-BLK, prokaryotically expressed and purified (human, UniProt P51451 1-505)
T1 construct: also called purified recombinant BLK; not shown: GST, N-terminal, kept
Test: pull-down
Settings: both partners purified

T1 sequence (P51451 whole entry): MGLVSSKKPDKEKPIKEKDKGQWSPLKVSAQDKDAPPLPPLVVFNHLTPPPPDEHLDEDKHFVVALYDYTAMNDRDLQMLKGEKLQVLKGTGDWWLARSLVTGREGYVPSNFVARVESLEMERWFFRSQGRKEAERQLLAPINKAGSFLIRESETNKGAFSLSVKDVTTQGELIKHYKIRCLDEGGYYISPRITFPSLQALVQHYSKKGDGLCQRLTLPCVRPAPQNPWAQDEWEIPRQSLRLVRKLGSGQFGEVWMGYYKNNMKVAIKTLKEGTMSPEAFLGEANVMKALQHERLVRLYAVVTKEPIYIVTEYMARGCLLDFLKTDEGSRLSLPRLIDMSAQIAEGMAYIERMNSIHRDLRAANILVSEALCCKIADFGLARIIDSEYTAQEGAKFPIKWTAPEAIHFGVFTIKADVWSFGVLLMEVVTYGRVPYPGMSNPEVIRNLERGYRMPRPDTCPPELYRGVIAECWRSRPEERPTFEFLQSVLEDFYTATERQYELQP

B1: IRF3-Flag, purified from HEK293 cells (natural protein, human, UniProt Q14653 1-427, looked up)
chain: MGTPKPRILPWLVSQLDLGQLEGVAWVNKSRTRFRIPWKHGLRQDAQQEDFGIFQAWAEATGAYVPGRDKPDLPTWKRNFRSALNRKEGLRLAEDRSKDPHDPHKIYEFVNSGVGDFSQPDTSPDTNGGGSTSDTQEDILDELLGNMVLAPLPDPGPPSLAVAPEPCPQPLRSPSLDNPTPFPNLGPSENPLKRLLVPGEEWEFEVTAFYRGRQVFQQTISCPEGLRLVGSEVGDRTLPGWPVTLPDPGMSLTDRGVMSYVRHVLSCLGGGLALWRAGQWLWAQRLGHCHTYWAVSEELLPNSGHGPDGEVPKDKEGGVFDLGPFIVDLITFTEGSGRSPRYALWFCVGESWPQDQPWTKRLVMVKVVPTCLRALVEMARVGGASSLENTVDLHISNSHPLSLTSDQYKAYLQDLVEGMDFQGPGES
B1: binds.

B2: His-IRF3, prokaryotically expressed and purified (natural protein, human, UniProt Q14653 1-427, looked up)
chain: B1 chain
notes: not shown: His, N-terminal, kept
B2: binds.
